Results taken from patent US20240390497A1 (Stanford University, published 2024).
Values belong to the binder of their own block, whether it stands above or below them.

Target: T1, human CD93/Fc fusion protein (human, UniProt Q9NPY3 22-580, limits assumed)
T1 construct: It was biotinylated or DyLight 650-conjugated for staining; also called CD93-Fc chimera protein; CD93-Fc biotinylated protein; not shown: Fc part
T1 sequence (looked up): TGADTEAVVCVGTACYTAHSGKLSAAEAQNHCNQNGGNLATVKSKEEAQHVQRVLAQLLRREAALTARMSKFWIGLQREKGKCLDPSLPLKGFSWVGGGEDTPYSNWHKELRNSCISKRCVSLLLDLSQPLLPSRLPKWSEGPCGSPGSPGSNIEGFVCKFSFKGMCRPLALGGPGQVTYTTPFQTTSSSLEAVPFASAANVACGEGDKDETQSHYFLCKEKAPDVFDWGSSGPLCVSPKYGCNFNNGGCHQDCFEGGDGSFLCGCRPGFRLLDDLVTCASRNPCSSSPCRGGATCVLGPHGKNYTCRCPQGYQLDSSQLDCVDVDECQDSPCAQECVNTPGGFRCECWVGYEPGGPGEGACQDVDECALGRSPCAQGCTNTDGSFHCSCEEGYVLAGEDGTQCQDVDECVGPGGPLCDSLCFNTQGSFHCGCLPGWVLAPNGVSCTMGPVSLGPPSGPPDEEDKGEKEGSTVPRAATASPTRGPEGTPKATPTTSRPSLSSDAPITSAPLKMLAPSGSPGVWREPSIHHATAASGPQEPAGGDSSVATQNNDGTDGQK
Assay: ELISA on coated human CD93/Fc, HRP anti-human kappa secondary, OD490
Experimental: FIGS. 2A-2O are sets of graphs illustrating that CD93-CAR T cells exert anti-leukemic effects against AML in vitro. FIG. 2A is a bar chart showing that humanized (“HuF11-G1” and “HuF11-G1 TM”) and chimeric F11 (“ChF11-G1”) monoclonal antibodies bind human CD93 with similar affinity. Human CD93/Fc fusion protein was coated in a 96-well plate and different concentrations of the antibodies as indicated were added. HRP-conjugated anti-human Kappa antibody was used as a secondary antibody. CD93 binding activity was measured by reading signals at OD490 […]. FIG. 2B is a cartoon showing the structure of CD93-28z and CD93-BBz CARs. […] Cells were fed with new media every 2-3 days, analyzed for transduction efficiency and phenotype on day 10-11, and processed for downstream experiments. FIG. 2D is a bar graph showing comparing transduction efficiency for each of aCAR molecule and control (“Mock”), measured by flow cytometry on day 10 after T cell activation. […] FIG. 2F is a set of graphs comparing expression levels of markers of T cell activation/exhaustion, including LAG-3, PD-1, TIM-3, and CD39, measured by flow cytometry on day 10 after T cell activation, prior to downstream experiments. […] FIG. 2G is a graph showing CD93 expression on AML cell lines, measured by flow cytometry after staining with biotinylated F11 antibody followed by streptavidin-APC. […]

EC50 (read off the curve): ~0.03 µg/mL
B1: humanized F11 monoclonal antibody (HuF11-G1) (antibody, V domains shown)
VH: QVQLVQSGAEVKKPGASVKVSCKASGYTFTDYHMDWVKQAPGQGLEWIGDIDPYNGDTVFNQKFKGKATMTRDTSISTAYMELSRLRSDDTAVYYCTRGGDYWGQGTLVTVSS
VL: DIVMTQTPLSLSVTPGQPASISCRSSQTLVHSNGNTYLHWYLQKPGQPPQLLIYKVSNRFSGVPDRFSGSGSGTDFTLKISRVEAEDVGVYFCSQSTHVPFTFGQGTKLEIK
notes: also called humanized F11 antibody

EC50 (read off the curve): ~0.03 µg/mL
B2: humanized F11 monoclonal antibody (HuF11-G1 TM) (antibody, V domains shown)
VH: B1 VH
VL: B1 VL
notes: as for B1
